Test results: PMC5750225, “Inhibition of Poly(A)-binding protein with a synthetic RNA mimic reduces pain sensitization in mice”

Target: PABP (PABPC1) (Homo sapiens, UniProt P11940 1-383)
Test: fluorescence polarization/anisotropy; text gives nM; Fig. 2d legend prints μM; FP: 50 mM HEPES, 5 mM EDTA, 250 mM KCl, 10 mM DTT, 0.5 mg/mL BSA, 0.05% Tween-20, 0.1 mg/mL yeast RNA, 0.5 nM Cy3-RNA (pH and temperature not stated). EMSA: 10
Details: protein: recombinant

PABP (PABPC1), sequence (P11940 1-383): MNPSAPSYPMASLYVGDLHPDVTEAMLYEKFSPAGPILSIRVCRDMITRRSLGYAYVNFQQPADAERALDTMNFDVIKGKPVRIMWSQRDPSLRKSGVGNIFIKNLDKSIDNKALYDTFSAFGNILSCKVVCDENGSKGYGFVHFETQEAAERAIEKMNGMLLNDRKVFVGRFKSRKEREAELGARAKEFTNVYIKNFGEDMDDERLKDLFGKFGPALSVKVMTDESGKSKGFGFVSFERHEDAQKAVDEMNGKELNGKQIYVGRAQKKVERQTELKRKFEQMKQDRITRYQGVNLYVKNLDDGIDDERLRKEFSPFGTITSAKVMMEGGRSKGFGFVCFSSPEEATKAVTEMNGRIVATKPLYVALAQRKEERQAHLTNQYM

AAAAAAAAAAAA (ssRNA) [unmodified 12-base Poly(A) RNA]
Kd: 261 ± 54 nM

B1: Poly(A) SPOT-ON (XNA)
strand: AAAAAAAAAAAA
modifications: 2'-O-methyl throughout; phosphorothioate at the 5' and 3' terminal linkages (A*AAAAAAAAAA*A)
Kd: 301 ± 41 nM
